This assay has as its target human recombinant TGFβ1 (Peprotech) (human) (UniProt P01137). Description: cell-based or functional assay.

Sequence of human recombinant TGFβ1 (Peprotech) (human) (P01137 279-390 limits assumed): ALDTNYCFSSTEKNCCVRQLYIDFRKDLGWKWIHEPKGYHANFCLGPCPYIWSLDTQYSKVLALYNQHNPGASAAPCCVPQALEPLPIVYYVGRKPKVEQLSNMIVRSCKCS

For “BM2, ectodomain of TGFβ receptor II (TGFβRII) with transmembrane and intracellular domains of CD137 (from UniProt P37173 23-166; Q07011 187-255)”, the fold-change in IFNy secretion, sub-optimal aCD3/aCD28 beads (1:300) + 10 ng/ml TGFβ versus beads alone was 1.9 fold and the fold-change in IFNy secretion, αCD3/αCD28 beads (1:100) + 10 ng/ml TGFβ versus beads alone was determined as 1.2 fold.
The matching figures for “BM3, truncated version of TGFβRII (from UniProt P37173 23-199) (receptor)”: 0.7 fold and 0.87 fold.

(Values after patent EP4509522A1.)
